Measured values reported in IntAct's records for PubMed 22493017.

B1: Biopolymer transport protein ExbD (Escherichia coli (strain K12)), P0ABV2 (parent)
chain: MAMHLNENLDDNGEMHDINVTPFIDVMLVLLIIFMVAAPLATVDVKVNLPASTSTPQPRPEKPVYLSVKADNSMFIGNDPVTDETMITALNALTEGKKDTTIFFRADKTVDYETLMKVMDTLHQAGYLKIGLVGEETAKAK
B2: Protein TonB (Escherichia coli (strain K12)), P02929 (parent)
chain: MTLDLPRRFPWPTLLSVCIHGAVVAGLLYTSVHQVIELPAPAQPISVTMVTPADLEPPQAVQPPPEPVVEPEPEPEPIPEPPKEAPVVIEKPKPKPKPKPKPVKKVQEQPKRDVKPVESRPASPFENTAPARLTSSTATAATSKPVTSVASGPRALSRNQPQYPARAQALRIEGQVKVKFDVTPDGRVDNVQILSAKPANMFEREVKNAMRRWRYEPGKPGSGIVVNILFKINGTTEIQ
partner: B1 chain

Variants of: B1
Conditions: with tonb_ecoli tonB, P02929

Variant | effect of a mutation on the interaction
T109C | increasing interaction
K97C | increasing interaction
A92C | increasing interaction
D25N | decreasing interaction

Variants of: B2
Conditions: with exbd_ecoli exbD, P0ABV2

Variant | effect of a mutation on the interaction
L170C | increasing interaction
F202C | increasing interaction
R212C | increasing interaction
A150C | increasing interaction
R204C | increasing interaction
R166C | increasing interaction
Q168C | increasing interaction
N200C | increasing interaction
P164C | increasing interaction
G152C | increasing interaction
